T1: IL-36R on human skin squamous cell line A431 (human, UniProt Q9HB29 20-575)
T1 sequence (looked up): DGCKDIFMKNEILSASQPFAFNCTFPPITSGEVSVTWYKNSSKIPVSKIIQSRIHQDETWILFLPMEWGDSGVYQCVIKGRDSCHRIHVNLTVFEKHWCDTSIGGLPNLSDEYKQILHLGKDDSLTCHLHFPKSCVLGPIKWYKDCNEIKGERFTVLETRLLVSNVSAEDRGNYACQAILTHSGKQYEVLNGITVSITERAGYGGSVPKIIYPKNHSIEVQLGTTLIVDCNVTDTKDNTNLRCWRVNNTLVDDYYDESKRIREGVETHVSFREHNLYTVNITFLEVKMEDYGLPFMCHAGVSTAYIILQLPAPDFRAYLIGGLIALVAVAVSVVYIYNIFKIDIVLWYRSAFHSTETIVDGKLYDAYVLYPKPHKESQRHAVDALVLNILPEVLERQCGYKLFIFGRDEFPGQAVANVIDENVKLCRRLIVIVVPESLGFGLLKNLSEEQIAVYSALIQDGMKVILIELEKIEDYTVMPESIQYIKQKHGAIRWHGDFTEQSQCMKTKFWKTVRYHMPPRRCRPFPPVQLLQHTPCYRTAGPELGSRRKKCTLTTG

T2: human IL-23 protein (ACROBiosystems, ILB-H52W5) (human, UniProt Q9NPF7 20-189; P29460 23-328)
T2 construct: Bought protein; construct not described; also called Human IL-23 antigen; human IL-23 antigen protein
T2 sequence (looked up) 1: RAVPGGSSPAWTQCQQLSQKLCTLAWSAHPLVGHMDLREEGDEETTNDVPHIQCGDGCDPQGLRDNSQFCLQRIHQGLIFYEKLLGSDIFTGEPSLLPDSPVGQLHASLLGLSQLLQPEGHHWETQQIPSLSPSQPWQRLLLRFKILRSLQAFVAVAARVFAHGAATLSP
T2 sequence (looked up) 2: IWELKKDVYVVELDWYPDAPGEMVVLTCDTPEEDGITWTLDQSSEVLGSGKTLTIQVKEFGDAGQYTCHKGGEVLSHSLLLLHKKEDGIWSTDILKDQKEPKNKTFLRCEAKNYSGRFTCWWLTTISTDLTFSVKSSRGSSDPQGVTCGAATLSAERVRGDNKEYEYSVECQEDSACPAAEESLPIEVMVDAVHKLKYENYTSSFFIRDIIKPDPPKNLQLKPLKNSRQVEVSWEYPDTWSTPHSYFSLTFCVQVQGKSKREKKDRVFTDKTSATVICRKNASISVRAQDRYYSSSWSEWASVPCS

T3: Human IL-36R protein (His + Avi Tag), Kactus IL1-HM4L2 (human, UniProt Q9HB29 20-335)
T3 construct: Bought protein; also called human IL-36R antigen protein; Human IL-36R antigen
T3 sequence: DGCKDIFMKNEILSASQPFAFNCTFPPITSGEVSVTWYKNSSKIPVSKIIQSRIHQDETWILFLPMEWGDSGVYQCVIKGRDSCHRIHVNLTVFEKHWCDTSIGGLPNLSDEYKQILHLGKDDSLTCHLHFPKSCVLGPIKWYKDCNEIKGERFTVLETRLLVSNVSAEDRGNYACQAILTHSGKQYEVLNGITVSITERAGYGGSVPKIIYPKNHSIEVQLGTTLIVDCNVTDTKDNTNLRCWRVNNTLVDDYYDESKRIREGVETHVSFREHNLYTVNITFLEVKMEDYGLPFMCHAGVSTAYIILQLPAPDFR

T4: human IL-23 protein (Sino Biological, CT048-H08H) (human, UniProt Q9NPF7 20-189; P29460 23-328)
T4 sequence (looked up) 1: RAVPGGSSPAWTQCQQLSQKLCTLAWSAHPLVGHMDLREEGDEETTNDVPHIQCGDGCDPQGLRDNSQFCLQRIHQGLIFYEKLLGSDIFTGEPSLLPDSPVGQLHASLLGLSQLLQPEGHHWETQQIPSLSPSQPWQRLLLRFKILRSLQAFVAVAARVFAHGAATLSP
T4 sequence (looked up) 2: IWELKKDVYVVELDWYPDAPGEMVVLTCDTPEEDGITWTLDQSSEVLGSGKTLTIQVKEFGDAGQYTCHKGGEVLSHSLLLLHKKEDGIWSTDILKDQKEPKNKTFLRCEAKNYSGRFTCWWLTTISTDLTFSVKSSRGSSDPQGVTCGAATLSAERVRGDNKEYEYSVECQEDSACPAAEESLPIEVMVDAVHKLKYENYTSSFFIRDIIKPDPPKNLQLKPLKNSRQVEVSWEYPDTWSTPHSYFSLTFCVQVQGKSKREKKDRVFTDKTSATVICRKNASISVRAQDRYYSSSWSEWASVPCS


Key:
[1] = biological target: T1, IL-36R on human skin squamous cell line …; experiment: cell-based or functional assay
[2] = biological target: T2, human IL-23 protein (ACROBiosystems, …); experiment: SPR (Biacore 8K), antibody captured by anti-human IgG Fc, IL-23 as analyte
[3] = biological target: T3, Human IL-36R protein (His + Avi Tag), …; experiment: SPR (Biacore 8K), antibody captured by anti-human IgG Fc, IL-36R as analyte
[4] = biological target: T4, human IL-23 protein (Sino Biological, …); experiment: cell-based or functional assay
[5] = biological target: T4, human IL-23 protein (Sino Biological, …); experiment: ELISA, test sample coated, His-tagged IL-23 in solution
[6] = biological target: T4, human IL-23 protein (Sino Biological, …); experiment: SPR (Biacore 8K), antibody captured on Protein A chip, IL-23 as analyte
[7] = biological target: T4, human IL-23 protein (Sino Biological, …); experiment: competition ELISA, IL-23R coated, biotinylated IL-23 preincubated with antibody

IL-36α-induced A431 IL-8 secretion IC50 [1]	Kd [2]	koff [2]	kon [2]	Kd [3]	koff [3]	kon [3]	Activity in inhibiting proliferation of BaF3-IL-23R cells (IC50, nM) [4]	EC50 [5]	Kd [6]	koff [6]	kon [6]	IC50 [7]	Binder
0.34 nM	0.0702 nM	6.02e-05 s⁻¹	858000 M⁻¹ s⁻¹	17.7 nM	0.000216 s⁻¹	12200 M⁻¹ s⁻¹							IL-36R-IL-23-04 (anti-IL-36R and anti-IL-23 bispecific antibody, VHH162_Hu11 on Hu29-19, Structure B) (bispecific antibody, human IgG1, kappa, L234A L235A, VHH fused by a (G4S)2 linker to the N-terminus of the light chain; IgG1 L234A/L235A) heavy: not shown light: EVQLVESGGGLVQPGGSLRLSCAASGYSYRTQCLGWYRQAPGKQREAVATISGGGTSTYYSDSVKGRFTISQDNSKTTVYLQMNSLRAEDTAVYYCAKGLSVLGSWCHGGSSYEYTYSGQGTLVTVSSGGGGSGGGGSDIVLTQSPDSLAVSLGERATINCRASESVDYYGISSMHWFQQKPGQPPKLLIYRASNLESGIPARFSGSGSRTDFTLTISSLQAEDVAVYYCQQANKDPYTFGGGTKVEIKRTVAAPSVFIFPPSDEQLKSGTASVVCLLNNFYPREAKVQWKVDNALQSGNSQESVTEQDSKDSTYSLSSTLTLSKADYEKHKVYACEVTHQGLSSPVTKSFNRGEC
							0.175 nM	1.16 nM	0.0207 nM	8.4e-05 s⁻¹	4.05e+06 M⁻¹ s⁻¹	0.386 nM	chimeric antibody Ch29 (antibody, human IgG1, kappa, L234A L235A, V domains shown) VH: QVQLKESGPGLVAPSQSLSITCTVSGFSLTSYAISWVRQPPGKGLEWLGVIWTGGGTNYNSGIKSRLTISKDNSKSQVFLNMNSLQTEDTARYYCVREGDYGSYAGAMDYWGQGTSVTVSS VL: DIVLTQSPASLAVSLGQRATISCRASESVDYYGISSMHWFQQKPGQPPKLLIYRASNLESGIPARFSGSGSRTDFTLTINRVETDDVATYYCQQANKDPYTFGGGTKLEIKR
0.29 nM	0.0517 nM	4.93e-05 s⁻¹	954000 M⁻¹ s⁻¹	4.28 nM	0.000108 s⁻¹	25300 M⁻¹ s⁻¹							IL-36R-IL-23-03 (anti-IL-36R and anti-IL-23 bispecific antibody, VHH213_Hu07 on Hu29-19, Structure B) (bispecific antibody, human IgG1, kappa, L234A L235A, VHH fused by a (G4S)2 linker to the N-terminus of the light chain; IgG1 L234A/L235A) heavy: not shown light: EVQLVESGGGLVQPGGSLRLSCAASGNTFSRYCMGWFRQAPGKELVGVAAIDSDGDTSYADSVEGRFTISRDNAKNTLYLQMNSLRAEDTAVYYCAADFTPSAPPRMGSGGYCFGDYWGQGTLVTVSSGGGGSGGGGSDIVLTQSPDSLAVSLGERATINCRASESVDYYGISSMHWFQQKPGQPPKLLIYRASNLESGIPARFSGSGSRTDFTLTISSLQAEDVAVYYCQQANKDPYTFGGGTKVEIKRTVAAPSVFIFPPSDEQLKSGTASVVCLLNNFYPREAKVQWKVDNALQSGNSQESVTEQDSKDSTYSLSSTLTLSKADYEKHKVYACEVTHQGLSSPVTKSFNRGEC
